Reference: publication PMC6529018

Molecular target: Recombinant His-BifA (full length) (Streptococcus equi subsp. zooepidemicus ATCC35246)
Assay: SPR; Biacore X100; His-BifA and its variants immobilised on NTA sensorchips, moesin, moesin T558A or moesin T558D injected

Substance | Kd [nM]
Recombinant moesin T558A, non-tagged (from UniProt P26038 1-577) (natural protein) | 737
Recombinant moesin T558D, non-tagged (from UniProt P26038 1-577) (natural protein) | 10.8
